Consider one molecule from paper PMC6127865.

The target in this data set is T1, HisMBP-CDX2ΔCTD R214N (UniProt Q99626 1-245, R214N).
T1 sequence: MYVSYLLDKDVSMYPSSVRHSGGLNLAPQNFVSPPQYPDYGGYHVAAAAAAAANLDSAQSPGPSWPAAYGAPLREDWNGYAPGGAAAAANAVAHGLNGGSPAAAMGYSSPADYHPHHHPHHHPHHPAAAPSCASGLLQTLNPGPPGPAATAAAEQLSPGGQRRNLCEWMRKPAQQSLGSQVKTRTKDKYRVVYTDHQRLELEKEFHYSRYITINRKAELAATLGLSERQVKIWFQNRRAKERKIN
Kind of data set: EMSA. Background: Mobility shift assays separate free from complexed probe on a gel.

B1: TP5921/TP5922 CDX2 consensus site duplex (dsDNA)
DNA 1: TAATCTCTCTGTTTATAGCTCTGACCT
DNA 2: AGGTCAGAGCTATAAACAGAGAGATTA
Regarding B1, the binding result is “no binding”.
